In the RNAGym collection of RNA variant scans (doi:10.7554/elife.80360):

B1: Hairpin Ribozyme (parent)
chain: GUCCUCUUUCACGUGCGCGUGAAAGAGAGAAGUGAACCAGAGAAACACACGUUGUGGUAUAUUACCUGGUA

Variants of: B1
Experiment: self-cleavage, relative activity (ratio to wild type); higher = more cleavage; co-transcriptional

| Variant | self-cleavage |
| --- | --- |
| U58G A61U | 0.0693 |
| A11U A39C | 0.495 |
| U58G U62C | 0.187 |
| A44C C48U | 0.0439 |
| A11G U20G | 0.982 |
| C16A U52C | 0.841 |
| G17A G34U | 0.967 |
| G27U A35U | 0.203 |
| A64C U67C | 0.151 |
| G13U A71C | 1.22 |
| A23C C46G | 0.092 |
| U5C U7C | 0.303 |
| A43U U63C | 0.219 |
| C18U A39G | 0.375 |
| G1A C65A | 0.285 |
| G13A A59U | 0.241 |
| G29A A59C | 0.138 |
| A30C U53A | 0.0771 |
| A26G C46U | 0.267 |
| G29U C66G | 0.233 |
| A39G A71C | 0.303 |
| U2A A59C | 0.0974 |
| G17U A24C | 0.848 |
| G29A U58A | 0.165 |

| Variant | self-cleavage |
| --- | --- |
| C16U C65A | 1.15 |
| G19U A24U | 0.684 |
| G15A G29U | 0.0945 |
| C4G A64C | 0.167 |
| C16A A35G | 1.06 |
| G19U A49U | 0.158 |
| C6A U70C | 0.618 |
| C16G A59C | 0.17 |
| A11U A49G | 0.558 |
| U9A G17A | 0.695 |
| C16G G21A | 0.515 |
| A11G C37G | 0.34 |
| G1A U62A | 0.192 |
| C38G A41U | 0.358 |
| A39C A44G | 0.0893 |
| A28C G68A | 0.182 |
| C6A U33A | 0.129 |
| A23G U62G | 0.0705 |
| U53C A64C | 0.278 |
| U8A U20A | 0.479 |
| G25C G27U | 0.164 |
| C6G G68A | 0.132 |
| U8A G56C | 0.196 |
| G1A G32C | 0.318 |

| Variant | self-cleavage |
| --- | --- |
| A22U A39U | 0.359 |
| U33G A35C | 0.333 |
| U14G A26G | 0.781 |
| G19C A45C | 0.114 |
| G21A G27U | 0.227 |
| G1U C50A | 0.189 |
| A36G U53G | 0.507 |
| A23U G54A | 0.551 |
| U7A U8A | 1.14 |
| A44C C65A | 0.213 |
| U2A U67G | 0.158 |
| U2C A41U | 0.283 |
| U33C U62G | 0.0931 |
| U9G G57U | 0.379 |
| C3A U63A | 0.0798 |
| G21A G54A | 0.491 |
| C10U G56C | 0.25 |
| C10A C18A | 0.708 |
| G17U G51U | 0.798 |
| C3U G42U | 0.21 |
| C16A A43C | 0.116 |
| G40U U63C | 0.092 |
| G1U U63G | 0.0703 |
| G34U G40C | 0.232 |

| Variant | self-cleavage |
| --- | --- |
| C37G A39U | 0.0635 |
| A30U A49G | 0.2 |
| C48G G57U | 0.101 |
| G17U A45U | 0.176 |
| C18U U67C | 0.249 |
| G15C A71U | 0.793 |
| A35C A43U | 0.194 |
| G25U A35U | 0.474 |
| U60C C66A | 0.31 |
| U33G G42A | 0.0778 |
| A23U G42A | 0.214 |
| A24C A47C | 0.272 |
| C4U A36G | 0.465 |
| C3G G15U | 0.29 |
| U52C U53C | 1.07 |
| A49U U58C | 0.28 |
| C37A | 0.345 |
| C37U | 0.614 |
| C37G G51A | 0.647 |
| C46U A47G | 0.0613 |
| C3A A49U | 0.0975 |
| G32C U55A | 0.176 |
| G15A A45C | 0.0834 |
| G1C A44G | 0.0352 |

| Variant | self-cleavage |
| --- | --- |
| U33C G34U | 0.348 |
| G42U U53C | 0.233 |
| C4G A47C | 0.13 |
| A11G A22U | 1.01 |
| A11G A22G | 0.774 |
| G25A U52A | 0.643 |
| C37A G57C | 0.158 |
| G27A U55A | 0.169 |
| A23G U53C | 0.995 |
| A49U U52C | 0.202 |
| A44C C50A | 0.0943 |
| G13U U55C | 0.254 |
| U5C G25A | 0.265 |
| U9A A44C | 0.132 |
| C46U A59C | 0.32 |
| G29U G51U | 0.121 |
| U58A G68U | 0.134 |
| A24U G54A | 0.472 |
| C38G G40A | 0.148 |
| C12U U20A | 0.695 |
| G34A C38G | 0.195 |
| U33C C50G | 0.0836 |
| C16U U63G | 0.195 |
| A45G U62A | 0.0572 |

| Variant | self-cleavage |
| --- | --- |
| U55C A64G | 0.132 |
| A44G U52G | 0.231 |
| G34A A61C | 0.336 |
| G17A G68C | 0.232 |
| C10U U20C | 0.722 |
| G17A A49C | 0.243 |
| U62A U70A | 0.143 |
| A31C U62A | 0.12 |
| G17A U63A | 0.19 |
| A28U G54A | 0.32 |
| C4A C10G | 0.164 |
| G56C G57U | 0.153 |
| U52C U70C | 1.11 |
| C6U A61C | 0.296 |
| U33A A61C | 0.127 |
| U2G G57A | 0.169 |
| C16A G69C | 0.205 |
| G13C A71G | 0.823 |
| U52G G57A | 0.181 |
| A30G G69C | 0.0841 |
| C10A C16G | 0.527 |
| G21C G25U | 0.399 |
| U8G C18A | 0.72 |
| G34A A45U | 0.0941 |

| Variant | self-cleavage |
| --- | --- |
| U2A U63G | 0.0633 |
| C46U C48U | 0.139 |
| G1C A31G | 0.187 |
| G15U A61G | 0.164 |
| A26C A35C | 0.726 |
| A49U G68A | 0.172 |
| A36U A44C | 0.112 |
| U7C U63C | 0.256 |
| U7C C48G | 0.145 |
| C6U C16U | 0.971 |
| G40A A45U | 0.149 |
| C48U U58A | 0.214 |
| C48U U58G | 0.152 |
| U2C G13A | 0.217 |
| U14C A44U | 0.0783 |
| C37G A41U | 0.541 |
| U53G A59G | 0.114 |
| C18G U33A | 0.169 |
| C4A C12A | 0.187 |
| A31U C48G | 0.0916 |
| C37U G57A | 0.169 |
| A22U A31U | 0.12 |
| G15U C65U | 0.33 |
